From paper PMC12847411, “High-affinity optimization potential of the virus neutralizing antibody with twin cysteine-stabilized complementarity-determining region 3” (Frontiers in Cellular and Infection Microbiology, 2025)
Numbering of substitutions follows the chain as printed.

B1: AZD8895-450 (antibody, V domains shown)
VH: QMQLVQSGPEVKKPGTSVKVSCKASGFTFMSSAVQWVRQARGQRLEWIGWIVIGSGNTNYAQKFQERVTITRDMSTSTAYMELSSLRSEDTAVYYCAANYCSSTICSDGMDIWGQGTMVTVSS
VL: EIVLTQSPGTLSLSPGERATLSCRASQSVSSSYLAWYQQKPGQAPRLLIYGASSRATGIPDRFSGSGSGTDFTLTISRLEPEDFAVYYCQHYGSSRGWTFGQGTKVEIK
B2: AZD8895-449 (antibody, V domains shown)
VH: B1 VH with N99P, S103L, I105N, M110F
VL: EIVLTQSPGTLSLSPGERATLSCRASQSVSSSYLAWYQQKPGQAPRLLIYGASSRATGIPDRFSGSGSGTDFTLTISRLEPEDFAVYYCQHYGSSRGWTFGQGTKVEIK
B3: AZD8895-275 (antibody, V domains shown)
VH: B1 VH with N99P, S103L, I105Y, M110F
VL: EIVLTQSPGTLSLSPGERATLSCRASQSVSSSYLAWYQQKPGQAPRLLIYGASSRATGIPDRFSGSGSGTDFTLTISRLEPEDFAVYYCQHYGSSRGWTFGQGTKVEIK
B4: AZD8895-25 (antibody, V domains shown)
VH: B1 VH with N99P, S103L, I105C, M110F
VL: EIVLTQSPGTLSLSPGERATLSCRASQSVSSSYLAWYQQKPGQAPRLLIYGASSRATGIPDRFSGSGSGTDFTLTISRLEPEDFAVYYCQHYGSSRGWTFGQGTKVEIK
B5: AZD8895 (antibody, V domains shown)
VH: B1 VH with N99P, T104I, I105S, S107N, M110F
VL: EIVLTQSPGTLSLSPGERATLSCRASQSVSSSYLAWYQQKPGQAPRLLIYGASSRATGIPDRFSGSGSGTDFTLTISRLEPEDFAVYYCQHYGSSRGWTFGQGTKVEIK
notes: also called seed antibody AZD8895; seed mAb; source: HEK293, transient transfection, purified (HiTrap Protein A HP)

target: recombinant Fc-fused SARS-CoV-2 RBD protein (Severe acute respiratory syndrome …, UniProt P0DTC2); test: SPR; settings: both partners purified

B1 and B2 are within 1.5-fold of each other in Kd: 16.5 nM for the first, 13.2 nM for the second.

Compared with B3, B4 is 1.8-fold lower in Kd: 8.42 nM for the first, 4.79 nM for the second. The second binds more tightly here.

With B5 the Kd was 12.6 nM.
